This data set has as its target IL-1b (human) (human, UniProt P01584 117-269). The data set is described as follows: plate binding assay / ELISA with aptamer replacing primary antibody; dose-dependent; protein fixed in plate, n = 3; buffer, salt, pH and temperature not given in the material. (In general: ELISA stands for enzyme-linked immunosorbent assay.)

Sequence of IL-1b (human) (P01584 117-269): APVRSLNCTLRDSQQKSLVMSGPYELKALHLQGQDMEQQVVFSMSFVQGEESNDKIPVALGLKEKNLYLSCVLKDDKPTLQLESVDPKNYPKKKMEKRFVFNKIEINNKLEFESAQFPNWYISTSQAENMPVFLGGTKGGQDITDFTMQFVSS

B1: AptIL-1b (ssDNA)
DNA: GAAGTATAGCGCAATAAACTCACCTCCCAC
As for B1, the binding result was “binds”.

Source of the values: publication PMC7312664, “Beneficial Effects of Inflammatory Cytokine-Targeting Aptamers in an Animal Model of Chronic Prostatitis”.
